Source: patent US20040161798A1

Tests used:
His6Gal80, P04387 [1] = molecular target: T1, His6Gal80, P04387; experiment: capture of Gal80 by 2 mg of TentaGel-Gal80bp at the higher protein concentrations, Western blot
T1 chain: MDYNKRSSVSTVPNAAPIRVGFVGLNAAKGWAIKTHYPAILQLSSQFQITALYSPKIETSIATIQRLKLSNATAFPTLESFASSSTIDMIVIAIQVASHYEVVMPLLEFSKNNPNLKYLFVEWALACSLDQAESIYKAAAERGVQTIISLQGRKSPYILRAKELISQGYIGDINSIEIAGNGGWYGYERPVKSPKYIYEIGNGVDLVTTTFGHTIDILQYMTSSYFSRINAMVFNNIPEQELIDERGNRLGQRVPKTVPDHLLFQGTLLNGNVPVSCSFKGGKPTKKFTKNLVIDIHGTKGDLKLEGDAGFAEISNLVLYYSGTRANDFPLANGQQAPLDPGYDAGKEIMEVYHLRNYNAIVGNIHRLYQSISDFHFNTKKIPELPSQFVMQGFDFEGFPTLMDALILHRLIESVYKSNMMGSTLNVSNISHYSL

His6Gal80, P04387 [2] = molecular target: T1, His6Gal80, P04387; experiment: capture of dilute Gal80 (0.4 nM) by TentaGel-Gal80bp, Western blot
His6Gal80, P04387 [3] = molecular target: T1, His6Gal80, P04387; experiment: fluorescence polarization after adding excess unlabeled peptide
His6Gal80, P04387 [4] = molecular target: T1, His6Gal80, P04387; experiment: fluorescence polarization titration of fluorescein-labeled peptide in solution
His6Gal80, P04387 [5] = molecular target: T1, His6Gal80, P04387; experiment: dilution assay on TentaGel beads, Western blot
His6Gal80, P04387 [6] = molecular target: T1, His6Gal80, P04387; experiment: capture of dilute Gal80 by TentaGel-Gal80bp, Western blot against a calibration blot
His6Gal80, P04387 [7] = molecular target: T1, His6Gal80, P04387; experiment: fluorescence polarization in solution: fluorescein-labelled peptide titrated with Gal80 protein

amount of protein retained on the beads (His6Gal80, P04387 [1]): 50 ng
percent of the protein bound to the beads (His6Gal80, P04387 [2]): 100%
half-life of the complex in solution (His6Gal80, P04387 [3]): < 10 s
Kd (His6Gal80, P04387 [4]): 300 nM
bound protein left on the beads (percent of the original level) (His6Gal80, P04387 [5]): 50%
Kd (His6Gal80, P04387 [6]): < 0.4 nM
Kd (His6Gal80, P04387 [7]): 200 nM
Binder: YDQDMQNNTFDDLFWKEGHR (modifications not checked) [Gal80bp]
